# Laboratory results as given in PMC8355326.
# Experiments:
# Assay in all cases: cryo-EM structure
# [1] = biological target: BG505 SOSIP MD39 (HIV (BG505 genotype, clade A))
# [2] = biological target: BG505 SOSIP.v5.2 N241/N289 (HIV (BG505 genotype, clade A))
# [3] = biological target: BG505 SOSIP.v5.2(7S) N241/N289 (HIV (BG505 genotype, clade A))
substance,measurement,setting,value
BG505 SOSIP MD39 (domain or fragment),stoichiometry N,[1],3
BG505 SOSIP.v5.2 N241/N289 (domain or fragment),stoichiometry N,[2],3
BG505 SOSIP.v5.2(7S) N241/N289 (domain or fragment),stoichiometry N,[3],3
